Measured values taken from US20230348603A1 (VERSEAU THERAPEUTICS, published 2023).

T1: Human VSIG4-L-CHO (human VSIG4 long isoform on CHO-K1 cells) (human, UniProt Q9Y279 20-399)
T1 construct: also called hVSIG4-L (flow cytometry)
T1 sequence: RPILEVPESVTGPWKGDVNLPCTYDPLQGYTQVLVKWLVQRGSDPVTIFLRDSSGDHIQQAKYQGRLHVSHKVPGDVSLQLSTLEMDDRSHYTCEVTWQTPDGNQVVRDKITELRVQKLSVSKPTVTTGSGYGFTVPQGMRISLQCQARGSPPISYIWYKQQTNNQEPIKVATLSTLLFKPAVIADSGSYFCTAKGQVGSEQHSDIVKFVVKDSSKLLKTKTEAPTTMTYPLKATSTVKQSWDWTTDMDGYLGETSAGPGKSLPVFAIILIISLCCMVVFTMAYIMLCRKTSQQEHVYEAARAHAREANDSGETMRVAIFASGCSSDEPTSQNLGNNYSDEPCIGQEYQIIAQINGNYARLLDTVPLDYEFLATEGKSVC

T2: Cynomolgus Monkey VSIG4-L-His (cynomolgus monkey)
T2 construct: ECD with His tag; also called cyVSIG4-L; cyno VSIG4-L-His
T2 chain: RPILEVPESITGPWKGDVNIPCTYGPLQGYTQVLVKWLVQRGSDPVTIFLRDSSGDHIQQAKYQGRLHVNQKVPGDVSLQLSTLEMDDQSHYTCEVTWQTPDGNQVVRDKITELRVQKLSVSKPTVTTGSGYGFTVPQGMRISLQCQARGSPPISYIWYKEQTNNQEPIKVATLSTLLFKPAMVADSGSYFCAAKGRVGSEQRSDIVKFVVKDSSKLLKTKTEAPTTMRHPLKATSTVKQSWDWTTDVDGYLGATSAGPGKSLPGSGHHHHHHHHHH

T3: Human VSIG4-L-His (human, UniProt Q9Y279 20-283)
T3 construct: long isoform ECD with His tag; also called hVSIG4-L
T3 sequence: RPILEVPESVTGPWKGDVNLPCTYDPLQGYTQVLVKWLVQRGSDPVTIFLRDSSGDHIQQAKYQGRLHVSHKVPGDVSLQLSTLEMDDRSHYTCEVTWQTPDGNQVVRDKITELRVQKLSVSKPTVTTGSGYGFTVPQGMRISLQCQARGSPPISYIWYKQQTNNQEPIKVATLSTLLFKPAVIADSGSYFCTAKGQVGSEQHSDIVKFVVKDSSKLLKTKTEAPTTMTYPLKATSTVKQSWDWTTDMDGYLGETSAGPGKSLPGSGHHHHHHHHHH

T4: Mouse VSIG4-His (mouse)
T4 construct: ECD with His tag; also called mVSIG4
T4 chain: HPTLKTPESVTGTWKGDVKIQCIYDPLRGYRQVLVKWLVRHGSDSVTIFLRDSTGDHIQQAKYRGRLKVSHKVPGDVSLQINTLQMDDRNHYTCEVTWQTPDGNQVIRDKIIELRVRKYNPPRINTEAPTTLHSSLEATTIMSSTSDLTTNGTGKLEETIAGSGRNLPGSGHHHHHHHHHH

T5: Human VSIG4-S-His (human, UniProt Q9Y279 20-283)
T5 construct: short isoform ECD with His tag; also called hVSIG4-S; VISG4-S-His
T5 sequence: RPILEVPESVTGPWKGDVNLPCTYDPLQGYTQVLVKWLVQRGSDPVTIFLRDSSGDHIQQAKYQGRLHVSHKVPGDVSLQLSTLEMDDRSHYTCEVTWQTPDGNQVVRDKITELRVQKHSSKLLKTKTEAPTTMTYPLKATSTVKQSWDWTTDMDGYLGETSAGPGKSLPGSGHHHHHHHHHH

B1: 12A08 mouse/human chimeric IgG4 (S228P) kappa (antibody, V domains shown)
VH: EVMLVESGGGLVKPGGSLKLSCAASGFTFDDFYMYWVRQTPEKRLEWVASISDGGTYTYYPDSVKGRFTISRDNAKNTLYLQLSSLKSEDTAMYYCARGVDKYYYAMDYWGQGTSVTVSS
VL: QILLTQSPAIMSASPGEKVTITCSASSSVSYMHWFQQKPGTSPKLWIYSTSNLASGVPARFSGSGSGTSYSLTISRMEAEDAATYYCQQRSSYPLTFGAGTKLELKR
B2: 14D12 mouse/human chimeric IgG4 (S228P) kappa (antibody, V domains shown)
VH: QIQLVQSGPELKKPGETVKISCKASGYTFTNYGMNWVKQTPGKGLKWMGLINTYTGEPTYADDFKGRFAFSLETSASTAYLQINNLKNEDMATYFCARERIYGYLHYFDYWGQGTTLTVSS
VL: DVVMTQTPASLAVSLGQRATISCKASQSVDYDGDSYMNWYQQKPGQPPKLLIYAASNLESGIPARFSGSGSGTDFTLNIHPVEEEDAATYYCQQSNEDPRTFGGGTKLEIKR
B3: 16E10 mouse/human chimeric IgG4 (S228P) kappa (antibody, V domains shown)
VH: QVQLQQSGAELVRPGTSVKISCKASGYTFTNYWLGWVKQRPGHGLEWIGDIYPGGGYTNYNEKFKGKATLTADTSSSTAYMQLSSLTSEDSAVYFCAKFYYYGSSYYFDSWGQGTTLTVSS
VL: DIVLTQSPSSLSVSAGEKVTLSCKSSQSLLNSGNQENYLAWYQQKPGQPPKLLIYGASTRESGVPDRFTGSGSGTDFTLTISSVQAEDLAVYYCQNDHSYPLTFGAGTKLELKR

Key:
Human VSIG4-L-Fc [1] = target: T6, Human VSIG4-L-Fc (human); experiment: BLI binning on hVSIG4-L-Fc, competitor 12A08 first;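 also: normalized to binding of second antibody without first competitor antibody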
T6 construct: also called hVSIG4-L-Fc; hVSIG4-L
T6 sequence (chain, as listed by the source limits assumed): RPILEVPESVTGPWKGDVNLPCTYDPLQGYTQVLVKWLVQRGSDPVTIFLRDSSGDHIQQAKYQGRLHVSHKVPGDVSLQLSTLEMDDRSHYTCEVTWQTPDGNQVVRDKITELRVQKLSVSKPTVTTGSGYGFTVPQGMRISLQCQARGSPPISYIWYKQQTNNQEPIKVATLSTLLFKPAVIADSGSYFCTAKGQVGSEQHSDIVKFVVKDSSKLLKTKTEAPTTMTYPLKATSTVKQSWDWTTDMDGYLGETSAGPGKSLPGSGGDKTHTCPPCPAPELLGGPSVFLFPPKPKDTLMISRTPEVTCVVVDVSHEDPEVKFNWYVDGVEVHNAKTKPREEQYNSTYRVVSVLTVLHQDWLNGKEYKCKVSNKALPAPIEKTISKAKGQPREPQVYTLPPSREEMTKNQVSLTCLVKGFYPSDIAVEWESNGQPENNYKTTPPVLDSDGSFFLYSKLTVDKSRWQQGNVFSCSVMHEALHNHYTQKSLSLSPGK

Human VSIG4-L-Fc [2] = target: T6, Human VSIG4-L-Fc; experiment: BLI binning on hVSIG4-L-Fc, competitor 13H11 first;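 also: normalized to binding of second antibody without first competitor antibody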
Human VSIG4-L-Fc [3] = target: T6, Human VSIG4-L-Fc; experiment: BLI binning on hVSIG4-L-Fc, competitor 15C03 first;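 also: normalized to binding of second antibody without first competitor antibody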
Experimental: (§1) Epitopic diversity of functional antibodies was further assessed by antibody cross-blocking experiments, performed on a ForteBio Octet® Red384 system. […] All assay steps occurred at 30° C. with an acquisition rate of 5.0 Hz.
(§2) Binning results were calculated using ForteBio Data Analysis HT software. Antibody “a” and antibody “b” steps were defined, and the maximum binding calculation was averaged at the last 10% of the step duration. Once the matrix was generated, the antibody “b” binding signal in the absence of any antibody “a” was used to normalize the maximum binding of the competitor antibodies. Hierarchical clustering was set with a similarity metric of Pearson and Lingang Criteria by Mean, and the normalized maximum binding nm shift is reported in Table 9 below.

[4] = target: T1, Human VSIG4-L-CHO (human VSIG4 long …); experiment: flow cytometry, CHO-K1 cells expressing hVSIG4-L
Human VSIG4-L-Fc [5] = target: T6, Human VSIG4-L-Fc; experiment: BLI binning on hVSIG4-L-Fc, competitor 16E03 first;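 also: normalized to binding of second antibody without first competitor antibody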
Experimental: as §1, §2

Human VSIG4-L-Fc [6] = target: T6, Human VSIG4-L-Fc; experiment: ligand blocking of iC3b, IgG
Human VSIG4-L-Fc [7] = target: T6, Human VSIG4-L-Fc; experiment: BLI binning on hVSIG4-L-Fc, competitor 12A12 first;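 also: normalized to binding of second antibody without first competitor antibody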
Human VSIG4-L-Fc [8] = target: T6, Human VSIG4-L-Fc; experiment: BLI binning on hVSIG4-L-Fc, competitor 16E10 first;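 also: normalized to binding of second antibody without first competitor antibody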
Human VSIG4-L-Fc [9] = target: T6, Human VSIG4-L-Fc; experiment: BLI binning on hVSIG4-L-Fc, competitor 14D12 first;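 also: normalized to binding of second antibody without first competitor antibody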
Experimental: as §1, §2

[10] = target: T1, Human VSIG4-L-CHO (human VSIG4 long …); experiment: flow cytometry (FJB), 200 nM mAb, huVSIG4-L CHO-K1 over parental CHO-K1
Human VSIG4-L-Fc [11] = target: T6, Human VSIG4-L-Fc; experiment: BLI binning on hVSIG4-L-Fc, competitor 15A06 first;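 also: normalized to binding of second antibody without first competitor antibody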
Experimental: as §1, §2

[12] = target: T2, Cynomolgus Monkey VSIG4-L-His; experiment: SPR (FJB)
Human VSIG4-L-His [13] = target: T3, Human VSIG4-L-His; experiment: SPR (FJB)
Human VSIG4-L-Fc [14] = target: T6, Human VSIG4-L-Fc; experiment: BLI binning on hVSIG4-L-Fc, competitor 14C05 first;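 also: normalized to binding of second antibody without first competitor antibody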
Experimental: as §1, §2

[15] = target: T1, Human VSIG4-L-CHO (human VSIG4 long …); experiment: flow cytometry (FJB), 200 nM mAb, huVSIG4-L CHO-K1 cells
Human VSIG4-L-Fc [16] = target: T6, Human VSIG4-L-Fc; experiment: ligand blocking of C3b, IgG
[17] = target: T2, Cynomolgus Monkey VSIG4-L-His; experiment: ELISA, IgG 50 nM on coated antigen;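 also: Mouse-human chimeric IgG4 antibodies incubated 1 h on plate-coated VSIG4 proteins, bound IgG detected with HRP-labelled anti-human IgG, irrelevant antibody and protein as specificity controls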
Experimental: (§3) The binding characteristics of selected antibodies identified in the phage display selections and reformatted as mouse-human chimeric IgG4 antibodies was assessed by ELISA for their ability to bind plate-bound human VSIG4-L, human VSIG4-S, cynomolgus monkey VSIG4, and mouse VSIG4 (Table 7). Antibodies were also assessed by ELISA for specificity to human VSIG4 compared to related VSIG4 B7 family members, including human B7-H1, B7-H2, B7-H3, B7-H4, B7-DC, B7-1, and B7-2 (Table 8).
(§4) Coated microplates were blocked with dried skimmed milk at 4% in PBS. Coated proteins were then incubated with each purified antibody at a concentration of 50 nM for 1 h to allow the binding to the proteins. Binding detection was measured using a goat anti-huIgG monoclonal detection antibody, HRP conjugated (Jackson Immune Research, West Gove, PA). As a control for specificity, an irrelevant antibody and protein were used. OD at 450 nm was determined using a standard absorbance microplate reader.

Mouse VSIG4-His = target: T4, Mouse VSIG4-His; experiment: ELISA, IgG 50 nM on coated antigen;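 also: Mouse-human chimeric IgG4 antibodies incubated 1 h on plate-coated VSIG4 proteins, bound IgG detected with HRP-labelled anti-human IgG, irrelevant antibody and protein as specificity controls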
Experimental: as §3, §4

Human VSIG4-L-Fc [18] = target: T6, Human VSIG4-L-Fc; experiment: ELISA, IgG 50 nM on coated antigen;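 also: Mouse-human chimeric IgG4 antibodies incubated 1 h on plate-coated VSIG4 proteins, bound IgG detected with HRP-labelled anti-human IgG, irrelevant antibody and protein as specificity controls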
Experimental: as §3, §4

Human VSIG4-S-Fc = target: T7, Human VSIG4-S-Fc (human); experiment: ELISA, IgG 50 nM on coated antigen;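 also: Mouse-human chimeric IgG4 antibodies incubated 1 h on plate-coated VSIG4 proteins, bound IgG detected with HRP-labelled anti-human IgG, irrelevant antibody and protein as specificity controls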
T7 construct: short isoform ECD fused to human Fc1; also called hVSIG4-S
T7 sequence (chain, as listed by the source limits assumed): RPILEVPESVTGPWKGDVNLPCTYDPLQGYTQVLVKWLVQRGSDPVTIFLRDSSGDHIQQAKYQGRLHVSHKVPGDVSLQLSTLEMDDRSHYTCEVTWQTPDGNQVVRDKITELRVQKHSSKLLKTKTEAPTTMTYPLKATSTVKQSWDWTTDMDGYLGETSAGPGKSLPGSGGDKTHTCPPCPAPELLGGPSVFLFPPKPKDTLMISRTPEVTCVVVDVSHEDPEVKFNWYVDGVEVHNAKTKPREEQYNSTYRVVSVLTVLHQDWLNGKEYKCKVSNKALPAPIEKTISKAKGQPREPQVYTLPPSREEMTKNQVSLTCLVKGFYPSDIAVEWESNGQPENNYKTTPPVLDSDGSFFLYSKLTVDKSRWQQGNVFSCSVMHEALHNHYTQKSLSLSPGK
Experimental: as §3, §4

[19] = target: T2, Cynomolgus Monkey VSIG4-L-His; experiment: BLI (Octet), IgG on AHC sensor, antigen 100 nM
Experimental: (§5) The binding affinity of chimeric antibodies was determined by biolayer interferometry (BLI), using a ForteBio Octet® Red384 system. […] Biosensors were rehydrated prior to the assay in kinetics buffer for 10 minutes and then equilibrated in kinetics buffer for 60 seconds. Antibody was then immobilized for 300 seconds followed by a 120 second baseline wash in fresh kinetics buffer, 300 second analyte association, and 300 second dissociation in the same buffer wells as the baseline wash step. All assay steps occurred at 30° C. with an acquisition rate of 5.0 Hz
(§6) Processing parameters included double reference subtraction, with human IgG4 used as an isotype control for reference sensor subtraction and immobilized ligand in kinetics buffer with no analyte used for reference sample subtraction. Y-axis data was aligned to the average baseline step for the last 5 seconds and all steps were inter-step corrected to the start of the dissociation step. High frequency noise was removed using Savitzky-Golay filtering and final fitting was a 1:1 global binding model to both association and dissociation.

Human VSIG4-L-His [20] = target: T3, Human VSIG4-L-His; experiment: BLI (Octet), IgG on AHC sensor, antigen 100 nM
Experimental: as §5, §6

Human VSIG4-S-His = target: T5, Human VSIG4-S-His; experiment: BLI (Octet), IgG on AHC sensor, antigen 100 nM
Experimental: as §5, §6

Human VSIG4-L-Fc [21] = target: T6, Human VSIG4-L-Fc; experiment: ligand competition ELISA (FJB), blocked ligand C3b
Human VSIG4-L-Fc [22] = target: T6, Human VSIG4-L-Fc; experiment: BLI binning on hVSIG4-L-Fc, competitor 15C04 first;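 also: normalized to binding of second antibody without first competitor antibody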
Human VSIG4-L-Fc [23] = target: T6, Human VSIG4-L-Fc; experiment: ligand competition ELISA (FJB), blocked ligand iC3b
[24] = target: T2, Cynomolgus Monkey VSIG4-L-His; experiment: BLI, IgG on AHC sensor, antigen 100 nM
Experimental: as §5
(§7) The binding affinity of humanized antibodies and the parental chimeric antibodies was determined by biolayer interferometry (BLI), using a ForteBio Octet® Red384 system, as described above.

Human VSIG4-L-His [25] = target: T3, Human VSIG4-L-His; experiment: BLI, IgG on AHC sensor, antigen 100 nM
Experimental: as §5, §7

Binder | normalized maximum binding nm shift (Human VSIG4-L-Fc [1]) [normalized] | normalized maximum binding nm shift (Human VSIG4-L-Fc [2]) [normalized] | normalized maximum binding nm shift (Human VSIG4-L-Fc [3]) [normalized] | EC50 [4] [nM] | normalized maximum binding nm shift (Human VSIG4-L-Fc [5]) [normalized] | Percent Blocking iC3b (Human VSIG4-L-Fc [6]) [%] | normalized maximum binding nm shift (Human VSIG4-L-Fc [7]) [normalized] | normalized maximum binding nm shift (Human VSIG4-L-Fc [8]) [normalized] | normalized maximum binding nm shift (Human VSIG4-L-Fc [9]) [normalized] | Binding (200 nM) Fold-Over-Parental [10] [fold] | normalized maximum binding nm shift (Human VSIG4-L-Fc [11]) [normalized] | Kd [12] [nM] | Kd (Human VSIG4-L-His [13]) [nM] | normalized maximum binding nm shift (Human VSIG4-L-Fc [14]) [normalized] | Binding (200 nM) MFI [15] [MFI] | Percent Blocking C3b (Human VSIG4-L-Fc [16]) [%] | ELISA OD450 [17] [OD450] | ELISA OD450 (Mouse VSIG4-His) [OD450] | ELISA OD450 (Human VSIG4-L-Fc [18]) [OD450] | ELISA OD450 (Human VSIG4-S-Fc) [OD450] | further results
B1 | 0.1 | 0.69 | 0.89 | 6.8 | 0.1 | 98 | 0.78 | 0.44 | 0.7 | 357 | 0.76 | 3.9 | 6.7 | 0.72 | 121000 | 96 | 4.43 | 0.056 | 4.44 | 3.37 | Kd [19]: 15.7 nM; Kd (Human VSIG4-L-His [20]): 20.6 nM; Kd (Human VSIG4-S-His): 18.8 nM; IC50 (Human VSIG4-L-Fc [21]): 1 nM; normalized maximum binding nm shift (Human VSIG4-L-Fc [22]): 0.94 normalized; IC50 (Human VSIG4-L-Fc [23]): 0.4 nM
B2 | 0.73 | 0.69 | 0.59 | 2.8 | 0.68 | 98 | 0.75 | 0.93 | 0.08 | 112 | 0.75 | 4.4 | 10.5 | 0.12 | 36400 | 97 | 4.52 | 0.05 | 4.53 | 3.43 | KD relative to parental chimera [24]: 1 fold; KD relative to parental chimera (Human VSIG4-L-His [25]): 1 fold; Kd [19]: 16.1 nM; Kd (Human VSIG4-L-His [20]): 21.5 nM; Kd (Human VSIG4-S-His): 28.7 nM; IC50 (Human VSIG4-L-Fc [21]): 0.8 nM; normalized maximum binding nm shift (Human VSIG4-L-Fc [22]): 0.8 normalized; IC50 (Human VSIG4-L-Fc [23]): 0.6 nM
B3 | 0 | 0.65 | 0.88 | 1 | 0.1 | 72 | 0.25 | 0.15 | 0.69 | 50 | 0.77 | 1.3 | 66.1 | 0.74 | 14700 | 33 | 4.5 | 0.048 | 4.44 | 2.04 | KD relative to parental chimera [24]: 1 fold; KD relative to parental chimera (Human VSIG4-L-His [25]): 1 fold; Kd [19]: 37.6 nM; Kd (Human VSIG4-L-His [20]): 68.5 nM; Kd (Human VSIG4-S-His): 75.3 nM; IC50 (Human VSIG4-L-Fc [21]): 0.7 nM; normalized maximum binding nm shift (Human VSIG4-L-Fc [22]): 0.89 normalized; IC50 (Human VSIG4-L-Fc [23]): 3.6 nM
